Experiments:
Assay in all cases: SPR
[1] = biological target: Cynomolgus CTLA-4 monomer
[2] = biological target: Human CTLA-4 monomer
[3] = biological target: recombinant cynomolgus CTLA-4-Fc (Sino Biological, #90213-C02H)
[4] = biological target: recombinant human CTLA-4-Fc (R&D Systems, #7268-CT) (UniProt P16410 36-161)
recombinant human CTLA-4-Fc (R&D Systems, #7268-CT), sequence (P16410 36-161): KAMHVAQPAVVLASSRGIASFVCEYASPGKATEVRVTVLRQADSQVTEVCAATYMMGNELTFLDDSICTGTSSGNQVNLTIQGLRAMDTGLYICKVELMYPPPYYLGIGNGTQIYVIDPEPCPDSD

recombinant cynomolgus CTLA-4-Fc (Sino Biological, #90213-C02H), sequence (chain, as listed by the source C02H): as the sequence (P16410 36-161) above, with S14N, L106M counted along it

B1: AGEN2041w (antibody)
heavy: EVQLVESGGGLVKPGGSLRLSCAASGFTFSSYSMNWVRQAPGKGLEWVSSISSSSSYIYYADSVKGRFTISRDNAKNSLYLQMNSLRAEDTAVYYCARVGLMGPFDIWGQGTMVTVSSASTKGPSVFPLAPCSRSTSESTAALGCLVKDYFPEPVTVSWNSGALTSGVHTFPAVLQSSGLYSLSSVVTVPSSNFGTQTYTCNVDHKPSNTKVDKTVERKCCVECPPCPAPPVAGPSVFLFPPKPKDTLMISRTPEVTCVVVDVSHEDPEVQFNWYVDGVEVHNAKTKPREEQFNSTFRVVSVLTVVHQDWLNGKEYKCKVSNKGLPAPIEKTISKTKGQPREPQVYTLPPSREEMTKNQVSLTCLVKGFYPSDIAVEWESNGQPENNYKTTPPMLDSDGSFFLYSKLTVDKSRWQQGNVFSCSVMHEALHNHYTQKSLSLSPG
light: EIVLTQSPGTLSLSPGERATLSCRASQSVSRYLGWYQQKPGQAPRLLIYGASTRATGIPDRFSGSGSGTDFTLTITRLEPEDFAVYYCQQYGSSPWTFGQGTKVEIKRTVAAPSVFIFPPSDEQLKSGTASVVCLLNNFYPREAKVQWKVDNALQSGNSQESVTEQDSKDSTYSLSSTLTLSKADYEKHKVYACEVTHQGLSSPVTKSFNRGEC
- Kd [1]: 2.1 nM
- Kd [2]: 2 nM
- Kd [3]: 4.4 nM
- Kd [4]: 1.7 nM

Reference: US20220267443A1 (published 2022)
